Numbered stars: 1 amine (or outer) side, 2 acyl side, 3 side chain; on linkers, the order of the positions; unused ones are H or OH. Bridge positions count the residues as written; N and C are the ends. Square brackets hold non-standard residues; d marks the D form. Side chains are listed from the residue outwards. Ends that are not written are not given here. * marks the point of attachment. C18 diacid = O=C(O)CCCCCCCCCCCCCCCCC(=O)*; γGlu = O=C(O)[C@H](CCC(=O)[*:2])N[*:1]; Aib = CC(C)(N)C(=O)O
How the values were obtained:
[1] = target: T1, human amylin receptor (calcitonin receptor co-expressed with receptor activity modifying protein, RAMP3) (human, UniProt P30988 25-474; O60896 24-148); assay: cell-based or functional assay
T1 sequence (looked up) 1: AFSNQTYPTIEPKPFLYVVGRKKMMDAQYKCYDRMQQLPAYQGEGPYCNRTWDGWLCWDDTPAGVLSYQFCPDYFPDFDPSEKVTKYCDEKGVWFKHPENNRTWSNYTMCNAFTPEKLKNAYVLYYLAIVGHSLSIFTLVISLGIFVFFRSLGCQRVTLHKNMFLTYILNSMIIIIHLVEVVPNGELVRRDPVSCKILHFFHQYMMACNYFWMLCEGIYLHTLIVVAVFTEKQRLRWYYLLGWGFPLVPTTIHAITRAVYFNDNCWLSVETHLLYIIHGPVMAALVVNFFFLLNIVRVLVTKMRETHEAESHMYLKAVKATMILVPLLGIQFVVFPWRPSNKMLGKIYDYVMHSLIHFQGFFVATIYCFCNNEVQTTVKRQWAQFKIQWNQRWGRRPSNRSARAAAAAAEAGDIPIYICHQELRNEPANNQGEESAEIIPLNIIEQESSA
T1 sequence (looked up) 2: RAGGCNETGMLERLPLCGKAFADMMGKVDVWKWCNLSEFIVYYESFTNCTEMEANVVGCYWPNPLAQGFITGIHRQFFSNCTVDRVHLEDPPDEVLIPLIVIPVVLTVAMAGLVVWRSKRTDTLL

[2] = target: T2, human calcitonin receptor (human, UniProt P30988 25-474); assay: cell-based or functional assay
T2 sequence (looked up): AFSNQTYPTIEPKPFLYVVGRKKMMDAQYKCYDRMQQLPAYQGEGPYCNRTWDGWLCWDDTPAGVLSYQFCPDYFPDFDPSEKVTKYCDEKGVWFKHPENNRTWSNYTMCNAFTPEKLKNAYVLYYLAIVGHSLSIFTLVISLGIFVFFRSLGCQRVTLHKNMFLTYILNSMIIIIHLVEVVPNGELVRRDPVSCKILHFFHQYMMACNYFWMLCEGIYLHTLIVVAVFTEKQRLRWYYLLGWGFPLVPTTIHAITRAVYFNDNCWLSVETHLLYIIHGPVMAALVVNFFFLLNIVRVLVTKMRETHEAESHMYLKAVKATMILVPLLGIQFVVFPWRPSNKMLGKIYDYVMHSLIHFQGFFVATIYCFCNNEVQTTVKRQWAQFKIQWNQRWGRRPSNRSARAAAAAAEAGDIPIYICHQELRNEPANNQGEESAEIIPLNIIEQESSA

B1: Peptide 103 (SEQ ID NO: 103) (peptide)
peptide: K([γGlu-C18 diacid])CNTATCATQRLANFLVHSSNNFGPI[dL]PPTNVGSNTY-NH2
modifications: disulfide 2-7
- EC50 (cAMP production) [1]: 161 pM
- Ratio (EC50 hCTR / EC50 hAMYR3) [1]: 12
- EC50 (cAMP production) [2]: 1880 pM

B2: Peptide 98 (SEQ ID NO: 98) (peptide)
peptide: K([γGlu-C18 diacid])KCNTATCATQRLANFL[Aib]HSSNNFGPILPPT[Aib]VGSNTY-NH2
modifications: disulfide 3-8; N-terminus assumed
SMILES: CC[C@H](C)[C@H](NC(=O)[C@@H]1CCCN1C(=O)CNC(=O)[C@H](Cc1ccccc1)NC(=O)[C@H](CC(N)=O)NC(=O)[C@H](CC(N)=O)NC(=O)[C@H](CO)NC(=O)[C@H](CO)NC(=O)[C@H](Cc1c[nH]cn1)NC(=O)C(C)(C)NC(=O)[C@H](CC(C)C)NC(=O)[C@H](Cc1ccccc1)NC(=O)[C@H](CC(N)=O)NC(=O)[C@H](C)NC(=O)[C@H](CC(C)C)NC(=O)[C@H](CCCNC(=N)N)NC(=O)[C@H](CCC(N)=O)NC(=O)[C@@H](NC(=O)[C@H](C)NC(=O)[C@@H]1CSSC[C@H](NC(=O)[C@H](CCCCN)NC(=O)[C@@H](N)CCCCNC(=O)CC[C@H](NC(=O)CCCCCCCCCCCCCCCCC(=O)O)C(=O)O)C(=O)N[C@@H](CC(N)=O)C(=O)N[C@@H]([C@@H](C)O)C(=O)N[C@@H](C)C(=O)N[C@@H]([C@@H](C)O)C(=O)N1)[C@@H](C)O)C(=O)N[C@@H](CC(C)C)C(=O)N1CCC[C@H]1C(=O)N1CCC[C@H]1C(=O)N[C@H](C(=O)NC(C)(C)C(=O)N[C@H](C(=O)NCC(=O)N[C@@H](CO)C(=O)N[C@@H](CC(N)=O)C(=O)N[C@H](C(=O)N[C@@H](Cc1ccc(O)cc1)C(N)=O)[C@@H](C)O)C(C)C)[C@@H](C)O
- EC50 (cAMP production) [1]: 942 pM
- Ratio (EC50 hCTR / EC50 hAMYR3) [1]: 1
- EC50 (cAMP production) [2]: 972 pM

B3: Peptide 100 (SEQ ID NO: 100) (peptide)
peptide: K([γGlu-C18 diacid])KCNTATCATQRLANFL[Aib]HSSNNFGPILPPTNV[Aib]SNTY-NH2
modifications: disulfide 3-8; N-terminus assumed
SMILES: CC[C@H](C)[C@H](NC(=O)[C@@H]1CCCN1C(=O)CNC(=O)[C@H](Cc1ccccc1)NC(=O)[C@H](CC(N)=O)NC(=O)[C@H](CC(N)=O)NC(=O)[C@H](CO)NC(=O)[C@H](CO)NC(=O)[C@H](Cc1c[nH]cn1)NC(=O)C(C)(C)NC(=O)[C@H](CC(C)C)NC(=O)[C@H](Cc1ccccc1)NC(=O)[C@H](CC(N)=O)NC(=O)[C@H](C)NC(=O)[C@H](CC(C)C)NC(=O)[C@H](CCCNC(=N)N)NC(=O)[C@H](CCC(N)=O)NC(=O)[C@@H](NC(=O)[C@H](C)NC(=O)[C@@H]1CSSC[C@H](NC(=O)[C@H](CCCCN)NC(=O)[C@@H](N)CCCCNC(=O)CC[C@H](NC(=O)CCCCCCCCCCCCCCCCC(=O)O)C(=O)O)C(=O)N[C@@H](CC(N)=O)C(=O)N[C@@H]([C@@H](C)O)C(=O)N[C@@H](C)C(=O)N[C@@H]([C@@H](C)O)C(=O)N1)[C@@H](C)O)C(=O)N[C@@H](CC(C)C)C(=O)N1CCC[C@H]1C(=O)N1CCC[C@H]1C(=O)N[C@H](C(=O)N[C@@H](CC(N)=O)C(=O)N[C@H](C(=O)NC(C)(C)C(=O)N[C@@H](CO)C(=O)N[C@@H](CC(N)=O)C(=O)N[C@H](C(=O)N[C@@H](Cc1ccc(O)cc1)C(N)=O)[C@@H](C)O)C(C)C)[C@@H](C)O
- EC50 (cAMP production) [1]: 364 pM
- Ratio (EC50 hCTR / EC50 hAMYR3) [1]: 1
- EC50 (cAMP production) [2]: 459 pM

B4: Peptide 101 (SEQ ID NO: 101) (peptide)
peptide: K([γGlu-C18 diacid])KCNTATCATQRLANFL[Aib]HSSNNFGPILPPTNVG[Aib]NTY-NH2
modifications: disulfide 3-8; N-terminus assumed
SMILES: CC[C@H](C)[C@H](NC(=O)[C@@H]1CCCN1C(=O)CNC(=O)[C@H](Cc1ccccc1)NC(=O)[C@H](CC(N)=O)NC(=O)[C@H](CC(N)=O)NC(=O)[C@H](CO)NC(=O)[C@H](CO)NC(=O)[C@H](Cc1c[nH]cn1)NC(=O)C(C)(C)NC(=O)[C@H](CC(C)C)NC(=O)[C@H](Cc1ccccc1)NC(=O)[C@H](CC(N)=O)NC(=O)[C@H](C)NC(=O)[C@H](CC(C)C)NC(=O)[C@H](CCCNC(=N)N)NC(=O)[C@H](CCC(N)=O)NC(=O)[C@@H](NC(=O)[C@H](C)NC(=O)[C@@H]1CSSC[C@H](NC(=O)[C@H](CCCCN)NC(=O)[C@@H](N)CCCCNC(=O)CC[C@H](NC(=O)CCCCCCCCCCCCCCCCC(=O)O)C(=O)O)C(=O)N[C@@H](CC(N)=O)C(=O)N[C@@H]([C@@H](C)O)C(=O)N[C@@H](C)C(=O)N[C@@H]([C@@H](C)O)C(=O)N1)[C@@H](C)O)C(=O)N[C@@H](CC(C)C)C(=O)N1CCC[C@H]1C(=O)N1CCC[C@H]1C(=O)N[C@H](C(=O)N[C@@H](CC(N)=O)C(=O)N[C@H](C(=O)NCC(=O)NC(C)(C)C(=O)N[C@@H](CC(N)=O)C(=O)N[C@H](C(=O)N[C@@H](Cc1ccc(O)cc1)C(N)=O)[C@@H](C)O)C(C)C)[C@@H](C)O
- EC50 (cAMP production) [1]: 177 pM
- Ratio (EC50 hCTR / EC50 hAMYR3) [1]: 2
- EC50 (cAMP production) [2]: 441 pM

B5: Peptide 102 (SEQ ID NO: 102) (peptide)
peptide: K([γGlu-C18 diacid])KCNTATCATQRLANFL[Aib]HSSNNFGPILPPTNVGS[Aib]TY-NH2
modifications: disulfide 3-8; N-terminus assumed
SMILES: CC[C@H](C)[C@H](NC(=O)[C@@H]1CCCN1C(=O)CNC(=O)[C@H](Cc1ccccc1)NC(=O)[C@H](CC(N)=O)NC(=O)[C@H](CC(N)=O)NC(=O)[C@H](CO)NC(=O)[C@H](CO)NC(=O)[C@H](Cc1c[nH]cn1)NC(=O)C(C)(C)NC(=O)[C@H](CC(C)C)NC(=O)[C@H](Cc1ccccc1)NC(=O)[C@H](CC(N)=O)NC(=O)[C@H](C)NC(=O)[C@H](CC(C)C)NC(=O)[C@H](CCCNC(=N)N)NC(=O)[C@H](CCC(N)=O)NC(=O)[C@@H](NC(=O)[C@H](C)NC(=O)[C@@H]1CSSC[C@H](NC(=O)[C@H](CCCCN)NC(=O)[C@@H](N)CCCCNC(=O)CC[C@H](NC(=O)CCCCCCCCCCCCCCCCC(=O)O)C(=O)O)C(=O)N[C@@H](CC(N)=O)C(=O)N[C@@H]([C@@H](C)O)C(=O)N[C@@H](C)C(=O)N[C@@H]([C@@H](C)O)C(=O)N1)[C@@H](C)O)C(=O)N[C@@H](CC(C)C)C(=O)N1CCC[C@H]1C(=O)N1CCC[C@H]1C(=O)N[C@H](C(=O)N[C@@H](CC(N)=O)C(=O)N[C@H](C(=O)NCC(=O)N[C@@H](CO)C(=O)NC(C)(C)C(=O)N[C@H](C(=O)N[C@@H](Cc1ccc(O)cc1)C(N)=O)[C@@H](C)O)C(C)C)[C@@H](C)O
- EC50 (cAMP production) [1]: 479 pM
- Ratio (EC50 hCTR / EC50 hAMYR3) [1]: 3
- EC50 (cAMP production) [2]: 1630 pM

B6: Peptide 104 (SEQ ID NO: 104) (peptide)
peptide: K([γGlu-C18 diacid])CNTATCATQRLANFLVHSSNNFGPIL[dP]PTNVGSNTY-NH2
modifications: disulfide 2-7
- EC50 (cAMP production) [1]: 79 pM
- Ratio (EC50 hCTR / EC50 hAMYR3) [1]: 23
- EC50 (cAMP production) [2]: 1820 pM

B7: Peptide 99 (SEQ ID NO: 99) (peptide)
peptide: K([γGlu-C18 diacid])KCNTATCATQRLANFL[Aib]HSSNNFGPILPPTN[Aib]GSNTY-NH2
modifications: disulfide 3-8; N-terminus assumed
SMILES: CC[C@H](C)[C@H](NC(=O)[C@@H]1CCCN1C(=O)CNC(=O)[C@H](Cc1ccccc1)NC(=O)[C@H](CC(N)=O)NC(=O)[C@H](CC(N)=O)NC(=O)[C@H](CO)NC(=O)[C@H](CO)NC(=O)[C@H](Cc1c[nH]cn1)NC(=O)C(C)(C)NC(=O)[C@H](CC(C)C)NC(=O)[C@H](Cc1ccccc1)NC(=O)[C@H](CC(N)=O)NC(=O)[C@H](C)NC(=O)[C@H](CC(C)C)NC(=O)[C@H](CCCNC(=N)N)NC(=O)[C@H](CCC(N)=O)NC(=O)[C@@H](NC(=O)[C@H](C)NC(=O)[C@@H]1CSSC[C@H](NC(=O)[C@H](CCCCN)NC(=O)[C@@H](N)CCCCNC(=O)CC[C@H](NC(=O)CCCCCCCCCCCCCCCCC(=O)O)C(=O)O)C(=O)N[C@@H](CC(N)=O)C(=O)N[C@@H]([C@@H](C)O)C(=O)N[C@@H](C)C(=O)N[C@@H]([C@@H](C)O)C(=O)N1)[C@@H](C)O)C(=O)N[C@@H](CC(C)C)C(=O)N1CCC[C@H]1C(=O)N1CCC[C@H]1C(=O)N[C@H](C(=O)N[C@@H](CC(N)=O)C(=O)NC(C)(C)C(=O)NCC(=O)N[C@@H](CO)C(=O)N[C@@H](CC(N)=O)C(=O)N[C@H](C(=O)N[C@@H](Cc1ccc(O)cc1)C(N)=O)[C@@H](C)O)[C@@H](C)O
- EC50 (cAMP production) [1]: 3800 pM
- Ratio (EC50 hCTR / EC50 hAMYR3) [1]: 0.5
- EC50 (cAMP production) [2]: 1820 pM

Reference: US20220204580A1 (AstraZeneca / MedImmune, published 2022)
